Assay results: paper PMC10439124

Molecular target: Pfs230D1-E2p fusion protein (Pfs230D1-linker-E2p), 60-copy nanoparticle (Plasmodium falciparum (3D7) | Geobacillus stearothermophilus) (UniProt P68874)
Assay: SEC-MALS + other: SEC-SAXS; SIBYLS beamline 12.3.1; the sample was injected into a size-exclusion column and a post-column splitter directed the eluate to the MALS and SAXS systems; molecular weight from Astra 6 (MALS) and PRIMUS/ATSAS (SAXS)

With “Pfs230D1-E2p fusion protein (Pfs230D1-linker-E2p), 60-copy nanoparticle (from UniProt P68874 542-736)” as the substance, how does the stoichiometry N read?
Its stoichiometry N is 60.
